According to patent publication US11466286B2, “Methods and compositions for conferring and/or enhancing herbicide tolerance using protoporphyrinogen oxidase or variant thereof” (FarmHannong Co., Ltd., priority 2016, dated 2022):

B1: CyPPO10 V165S + F360V: CyPPO10 (SEQ ID NO: 2) PPO variant (protein)
chain: MIEVDVAIVGGGLSGLSVAWRLQRSAPHYSGVLLEASDRLGGNITTQAAEGFVWELGPNSFAPTPALLQLIAEVGLHSELIRGDRHLPRYIYWRGELYPLEPTRPLALATSNLLSPWGKVRAALGALGFVPPYLGSGDESVDSFFRRHLGQEVAERLVAPFVSGSYAGDPQQLSAAAAFRRIAQLEKLGGSLIAGALRLRRQQPPQPKPPAQVQMRPGELGSFREGLAALPRAIAQQLKAPLHLQTPVEAITPEPKGGYLLRSGEQTWHARSVVLATPAYQTAELVAPFQPAIARALATIPYPTVACVVLAYPAGLGRSVRPGFGVLVPRGQGIRTLGTIWSSCLFPQRTPAGWQVFTSVIGGATDPDLASLREEAIVEQVQQDLTRLLDLPAAKARLLGMKVWRRAIPQYIVGYPQQWQQVTHALTQTPGLFLCSNYAEGVALGDRVEHGNRTAAAVAAYLAGGQS
modifications: Synthetic CyPPO10
B2: CyPPO10 A167L + F360I: CyPPO10 (SEQ ID NO: 2) PPO variant (protein)
chain: MIEVDVAIVGGGLSGLSVAWRLQRSAPHYSGVLLEASDRLGGNITTQAAEGFVWELGPNSFAPTPALLQLIAEVGLHSELIRGDRHLPRYIYWRGELYPLEPTRPLALATSNLLSPWGKVRAALGALGFVPPYLGSGDESVDSFFRRHLGQEVAERLVAPFVSGVYLGDPQQLSAAAAFRRIAQLEKLGGSLIAGALRLRRQQPPQPKPPAQVQMRPGELGSFREGLAALPRAIAQQLKAPLHLQTPVEAITPEPKGGYLLRSGEQTWHARSVVLATPAYQTAELVAPFQPAIARALATIPYPTVACVVLAYPAGLGRSVRPGFGVLVPRGQGIRTLGTIWSSCLFPQRTPAGWQVFTSIIGGATDPDLASLREEAIVEQVQQDLTRLLDLPAAKARLLGMKVWRRAIPQYIVGYPQQWQQVTHALTQTPGLFLCSNYAEGVALGDRVEHGNRTAAAVAAYLAGGQS
modifications: Synthetic CyPPO10
B3: CyPPO10 V305M + F360M: CyPPO10 (SEQ ID NO: 2) PPO variant (protein)
chain: MIEVDVAIVGGGLSGLSVAWRLQRSAPHYSGVLLEASDRLGGNITTQAAEGFVWELGPNSFAPTPALLQLIAEVGLHSELIRGDRHLPRYIYWRGELYPLEPTRPLALATSNLLSPWGKVRAALGALGFVPPYLGSGDESVDSFFRRHLGQEVAERLVAPFVSGVYAGDPQQLSAAAAFRRIAQLEKLGGSLIAGALRLRRQQPPQPKPPAQVQMRPGELGSFREGLAALPRAIAQQLKAPLHLQTPVEAITPEPKGGYLLRSGEQTWHARSVVLATPAYQTAELVAPFQPAIARALATIPYPTMACVVLAYPAGLGRSVRPGFGVLVPRGQGIRTLGTIWSSCLFPQRTPAGWQVFTSMIGGATDPDLASLREEAIVEQVQQDLTRLLDLPAAKARLLGMKVWRRAIPQYIVGYPQQWQQVTHALTQTPGLFLCSNYAEGVALGDRVEHGNRTAAAVAAYLAGGQS
modifications: Synthetic CyPPO10
B4: CyPPO10 S60T + V165S + F360M: CyPPO10 (SEQ ID NO: 2) PPO variant (protein)
chain: MIEVDVAIVGGGLSGLSVAWRLQRSAPHYSGVLLEASDRLGGNITTQAAEGFVWELGPNTFAPTPALLQLIAEVGLHSELIRGDRHLPRYIYWRGELYPLEPTRPLALATSNLLSPWGKVRAALGALGFVPPYLGSGDESVDSFFRRHLGQEVAERLVAPFVSGSYAGDPQQLSAAAAFRRIAQLEKLGGSLIAGALRLRRQQPPQPKPPAQVQMRPGELGSFREGLAALPRAIAQQLKAPLHLQTPVEAITPEPKGGYLLRSGEQTWHARSVVLATPAYQTAELVAPFQPAIARALATIPYPTVACVVLAYPAGLGRSVRPGFGVLVPRGQGIRTLGTIWSSCLFPQRTPAGWQVFTSMIGGATDPDLASLREEAIVEQVQQDLTRLLDLPAAKARLLGMKVWRRAIPQYIVGYPQQWQQVTHALTQTPGLFLCSNYAEGVALGDRVEHGNRTAAAVAAYLAGGQS
modifications: Synthetic CyPPO10
B5: CyPPO10 A167C + F360M: CyPPO10 (SEQ ID NO: 2) PPO variant (protein)
chain: MIEVDVAIVGGGLSGLSVAWRLQRSAPHYSGVLLEASDRLGGNITTQAAEGFVWELGPNSFAPTPALLQLIAEVGLHSELIRGDRHLPRYIYWRGELYPLEPTRPLALATSNLLSPWGKVRAALGALGFVPPYLGSGDESVDSFFRRHLGQEVAERLVAPFVSGVYCGDPQQLSAAAAFRRIAQLEKLGGSLIAGALRLRRQQPPQPKPPAQVQMRPGELGSFREGLAALPRAIAQQLKAPLHLQTPVEAITPEPKGGYLLRSGEQTWHARSVVLATPAYQTAELVAPFQPAIARALATIPYPTVACVVLAYPAGLGRSVRPGFGVLVPRGQGIRTLGTIWSSCLFPQRTPAGWQVFTSMIGGATDPDLASLREEAIVEQVQQDLTRLLDLPAAKARLLGMKVWRRAIPQYIVGYPQQWQQVTHALTQTPGLFLCSNYAEGVALGDRVEHGNRTAAAVAAYLAGGQS
modifications: Synthetic CyPPO10
B6: CyPPO10 V305T + F360I: CyPPO10 (SEQ ID NO: 2) PPO variant (protein)
chain: MIEVDVAIVGGGLSGLSVAWRLQRSAPHYSGVLLEASDRLGGNITTQAAEGFVWELGPNSFAPTPALLQLIAEVGLHSELIRGDRHLPRYIYWRGELYPLEPTRPLALATSNLLSPWGKVRAALGALGFVPPYLGSGDESVDSFFRRHLGQEVAERLVAPFVSGVYAGDPQQLSAAAAFRRIAQLEKLGGSLIAGALRLRRQQPPQPKPPAQVQMRPGELGSFREGLAALPRAIAQQLKAPLHLQTPVEAITPEPKGGYLLRSGEQTWHARSVVLATPAYQTAELVAPFQPAIARALATIPYPTTACVVLAYPAGLGRSVRPGFGVLVPRGQGIRTLGTIWSSCLFPQRTPAGWQVFTSIIGGATDPDLASLREEAIVEQVQQDLTRLLDLPAAKARLLGMKVWRRAIPQYIVGYPQQWQQVTHALTQTPGLFLCSNYAEGVALGDRVEHGNRTAAAVAAYLAGGQS
modifications: Synthetic CyPPO10
B7: CyPPO10 S60T + V165S + F360I: CyPPO10 (SEQ ID NO: 2) PPO variant (protein)
chain: MIEVDVAIVGGGLSGLSVAWRLQRSAPHYSGVLLEASDRLGGNITTQAAEGFVWELGPNTFAPTPALLQLIAEVGLHSELIRGDRHLPRYIYWRGELYPLEPTRPLALATSNLLSPWGKVRAALGALGFVPPYLGSGDESVDSFFRRHLGQEVAERLVAPFVSGSYAGDPQQLSAAAAFRRIAQLEKLGGSLIAGALRLRRQQPPQPKPPAQVQMRPGELGSFREGLAALPRAIAQQLKAPLHLQTPVEAITPEPKGGYLLRSGEQTWHARSVVLATPAYQTAELVAPFQPAIARALATIPYPTVACVVLAYPAGLGRSVRPGFGVLVPRGQGIRTLGTIWSSCLFPQRTPAGWQVFTSIIGGATDPDLASLREEAIVEQVQQDLTRLLDLPAAKARLLGMKVWRRAIPQYIVGYPQQWQQVTHALTQTPGLFLCSNYAEGVALGDRVEHGNRTAAAVAAYLAGGQS
modifications: Synthetic CyPPO10
B8: CyPPO10 R89A + V305T + F360M: CyPPO10 (SEQ ID NO: 2) PPO variant (protein)
chain: MIEVDVAIVGGGLSGLSVAWRLQRSAPHYSGVLLEASDRLGGNITTQAAEGFVWELGPNSFAPTPALLQLIAEVGLHSELIRGDRHLPAYIYWRGELYPLEPTRPLALATSNLLSPWGKVRAALGALGFVPPYLGSGDESVDSFFRRHLGQEVAERLVAPFVSGVYAGDPQQLSAAAAFRRIAQLEKLGGSLIAGALRLRRQQPPQPKPPAQVQMRPGELGSFREGLAALPRAIAQQLKAPLHLQTPVEAITPEPKGGYLLRSGEQTWHARSVVLATPAYQTAELVAPFQPAIARALATIPYPTTACVVLAYPAGLGRSVRPGFGVLVPRGQGIRTLGTIWSSCLFPQRTPAGWQVFTSMIGGATDPDLASLREEAIVEQVQQDLTRLLDLPAAKARLLGMKVWRRAIPQYIVGYPQQWQQVTHALTQTPGLFLCSNYAEGVALGDRVEHGNRTAAAVAAYLAGGQS
modifications: Synthetic CyPPO10

System: CyPPO10
Assay: PPO enzyme activity and IC50 by herbicides, CyPPO10 wild type and variants (MBP-PPO fusion)
Type: biochemical, Thermosynechococcus elongatus BP-1
Details: PPO enzyme activity of CyPPO10 protein, wild type = 100
Description: The enzyme activities of PPO protein and PPO protein variants were examined, and inhibition assay by PPO-inhibiting herbicides was conducted. It was confirmed that the PPO protein has low water-solubility, but in case of being expressed as a fusion protein with MBP (maltose binding protein) (MBP-PPO), the PPO protein is able to be stably expressed as water-soluble form. Therefore, the wild type and variant proteins which were expressed in the form of fusion protein with MBP were used in the present test (refer to FIG. 4).
In order to express wild type genes and mutant genes of CyPPO10 and CyPPO13 (refer to Example 1 and Example 4), those genes were introduced to pMAL-c2X vector (refer to FIG. 5) respectively, and then cloned to BL21 (DE3) E. coli (CodonPlus).
The enzyme activity of the purified wild type protein and variant proteins of CyPPO10 and CyPPO13 was measured by the following process.
At first, a substrate of PPO protein, Protoporphyrinogen IX was synthesized. This process was performed in the space where nitrogen gas is streamed. 6 mg of protoporphyrin IX was dissolved in 20% (v/v) EtOH 20 ml, and stirred under dark condition for 30 minutes. The obtained protoporphyrinogen IX solution was put into a 15 ml screw tube in an amount of 800 and flushed with nitrogen gas for 5 minutes. To this, 1 g of sodium amalgam was added and vigorous shaking was performed for 2 minutes. The lid was open to exhaust hydrogen gas in the tube. Thereafter, the lid was closed and incubated for 3 minutes. The […] was filtered using syringe and cellulose membrane filter. To 600 μl of the obtained […], 2M MOPS [3-(N-morpholino)propanesulfonic acid] was added in an amount of approximately 300 thereby adjusting pH to 8.0. To determine the enzyme activity of PPO protein, a reaction mixture was prepared with the following composition (based on 10 ml): 50 mM Tris-Cl (pH 8.0); 50 mM NaCl; 0.04% (v/v) Tween 20; 40 mM glucose (0.072 g); 5 units glucose oxidase (16.6 mg); and 10 units catalase (1 μl).
Two hundred microliters (200 μl) of reaction mixture containing a purified PPO protein were placed in 96 well plates, and preincubated for 30 min at room temperature to reduce the oxygen concentration by the reaction of glucose oxidase-catalase. The mineral oil was layered and then the reaction was initiated by adding the substrate, […], to a final concentration of 50 μM. The reaction proceeded at room temperature for 30 min and the fluorescence of protoporphyrin IX was measured using Microplate reader (Sense, Hidex) (excitation: 405 nm; emission: 633 nm). To calculate the PPO enzyme activity, protoporphyrinogen IX solution was kept open in the air to oxidize the solution (overnight). To this, 2.7N HCl was added, and the absorbance at 408 nm was measured. A standard curve was generated using standard protoporphyrin IX, and the PPO activity was measured by calibration of protoporphyrin IX using the standard curve of protoporphyrin IX.
The final concentration of each herbicide was as follows: […]

First: B1
Second: B2
The “Activity (%)” value of the first is higher: 52% for the first, 32% for the second.

Going from B3 to B4, the “Activity (%)” value falls from 87% to 17%.

Compared with B5, B6 is lower in “Activity (%)” value: 90% for the first, 10% for the second.

Compared with B7, B8 is lower in “Activity (%)” value: 12% for the first, 5% for the second.
